Experiments:
[1] = molecular target: T1, 4H2931-bN; test: two-hybrid library CCNG1;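 note: natural log of median RNA to DNA barcode read ratio; higher means stronger binding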
T1 chain: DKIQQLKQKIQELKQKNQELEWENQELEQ

[2] = molecular target: T2, P10A-bN; test: two-hybrid library CCNG1;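 note: natural log of median RNA to DNA barcode read ratio; higher means stronger binding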
T2 chain: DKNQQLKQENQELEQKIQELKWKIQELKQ

[3] = molecular target: T3, 4H349-bN; test: two-hybrid library CCNG1;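 note: natural log of median RNA to DNA barcode read ratio; higher means stronger binding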
T3 chain: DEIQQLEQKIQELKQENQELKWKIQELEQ

[4] = molecular target: T4, 4H2760-bN; test: two-hybrid library CCNG1;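 note: natural log of median RNA to DNA barcode read ratio; higher means stronger binding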
T4 chain: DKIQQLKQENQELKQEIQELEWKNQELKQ

[5] = molecular target: T5, 4H730-bN; test: two-hybrid library CCNG1;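 note: natural log of median RNA to DNA barcode read ratio; higher means stronger binding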
T5 chain: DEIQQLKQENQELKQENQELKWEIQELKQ

[6] = molecular target: T6, 4H932-bN; test: two-hybrid library CCNG1;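 note: natural log of median RNA to DNA barcode read ratio; higher means stronger binding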
T6 chain: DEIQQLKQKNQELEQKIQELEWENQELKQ

[7] = molecular target: T7, 4H3381-bN; test: two-hybrid library CCNG1
T7 chain: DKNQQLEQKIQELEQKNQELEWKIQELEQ

[8] = molecular target: T8, 4H264-bN; test: two-hybrid library CCNG1
T8 chain: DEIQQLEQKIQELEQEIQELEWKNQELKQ

[9] = molecular target: T9, 4H3041-bN; test: two-hybrid library CCNG1
T9 chain: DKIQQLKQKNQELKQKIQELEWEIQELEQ

[10] = molecular target: T10, 4H3297-bN; test: two-hybrid library CCNG1
T10 chain: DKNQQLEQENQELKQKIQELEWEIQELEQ

[11] = molecular target: T11, 4H3364-bN; test: two-hybrid library CCNG1
T11 chain: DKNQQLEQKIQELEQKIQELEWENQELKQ

[12] = molecular target: T12, 4H570-bA; test: two-hybrid library CCNG1
T12 chain: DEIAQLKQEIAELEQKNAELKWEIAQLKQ

[13] = molecular target: T13, 4H56-bN; test: two-hybrid library CCNG1
T13 chain: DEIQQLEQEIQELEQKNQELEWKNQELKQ

[14] = molecular target: T14, 4H2859-bN; test: two-hybrid library CCNG1
T14 chain: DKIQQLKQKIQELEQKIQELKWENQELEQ

[15] = molecular target: T15, 4H796-bN; test: two-hybrid library CCNG1
T15 chain: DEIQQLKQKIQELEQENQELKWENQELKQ

[16] = molecular target: T16, 4H949-bN; test: two-hybrid library CCNG1
T16 chain: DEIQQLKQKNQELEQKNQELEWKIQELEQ

[17] = molecular target: T17, 4H496-bH; test: two-hybrid library CCNG1
T17 chain: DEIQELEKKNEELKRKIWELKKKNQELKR

[18] = molecular target: T18, 4H145-bH; test: two-hybrid library CCNG1
T18 chain: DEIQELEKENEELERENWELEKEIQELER

[19] = molecular target: T19, 4H3632-bH; test: two-hybrid library CCNG1
T19 chain: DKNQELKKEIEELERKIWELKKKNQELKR

[20] = molecular target: T20, 4H2691-bH; test: two-hybrid library CCNG1
T20 chain: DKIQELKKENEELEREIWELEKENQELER

[21] = molecular target: T21, 4H3070-bH; test: two-hybrid library CCNG1
T21 chain: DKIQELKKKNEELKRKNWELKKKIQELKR

[22] = molecular target: T22, 4H1347-bH; test: two-hybrid library CCNG1
T22 chain: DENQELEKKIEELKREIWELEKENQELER

[23] = molecular target: T23, 4H342-bH; test: two-hybrid library CCNG1
T23 chain: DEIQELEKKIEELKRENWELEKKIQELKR

[24] = molecular target: T24, 4H2619-bH; test: two-hybrid library CCNG1
T24 chain: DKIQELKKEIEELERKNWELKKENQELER

[25] = molecular target: T25, Core_NNIN-es_KEKE; test: two-hybrid library CCmax; conditions: mean of both orientations
T25 chain: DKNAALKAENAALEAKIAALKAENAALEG

[26] = molecular target: T26, O11-bN; test: two-hybrid library CCNG1
T26 chain: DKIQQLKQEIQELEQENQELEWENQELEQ

[27] = molecular target: T27, O9-bN; test: two-hybrid library CCNG1
T27 chain: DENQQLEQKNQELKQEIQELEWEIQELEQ

[28] = molecular target: T28, O5-bN; test: two-hybrid library CCNG1
T28 chain: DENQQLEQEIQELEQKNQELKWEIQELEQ

[29] = molecular target: T29, O3-bN; test: two-hybrid library CCNG1
T29 chain: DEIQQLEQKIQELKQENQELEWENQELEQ

[30] = molecular target: T30, O13-bN; test: two-hybrid library CCNG1
T30 chain: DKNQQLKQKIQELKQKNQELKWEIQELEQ

[31] = molecular target: T31, O7-bN; test: two-hybrid library CCNG1
T31 chain: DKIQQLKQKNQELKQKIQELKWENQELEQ

[32] = molecular target: T32, O2-bN; test: two-hybrid library CCNG1
T32 chain: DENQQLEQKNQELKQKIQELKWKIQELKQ

[33] = molecular target: T33, O16-bN; test: two-hybrid library CCNG1
T33 chain: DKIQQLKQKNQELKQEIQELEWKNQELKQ

[34] = molecular target: T34, O10-bN; test: two-hybrid library CCNG1
T34 chain: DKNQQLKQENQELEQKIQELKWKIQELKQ

[35] = molecular target: T35, O12-bN; test: two-hybrid library CCNG1
T35 chain: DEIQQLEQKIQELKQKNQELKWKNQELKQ

[36] = molecular target: T36, O4-bN; test: two-hybrid library CCNG1
T36 chain: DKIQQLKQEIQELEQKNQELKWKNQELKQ

[37] = molecular target: T37, O1-bN; test: two-hybrid library CCNG1
T37 chain: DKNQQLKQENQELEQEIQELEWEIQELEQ

[38] = molecular target: T38, O6-bN; test: two-hybrid library CCNG1
T38 chain: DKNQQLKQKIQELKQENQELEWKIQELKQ

[39] = molecular target: T39, O8-bN; test: two-hybrid library CCNG1
T39 chain: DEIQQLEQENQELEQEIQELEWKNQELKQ

[40] = molecular target: T40, O14-bN; test: two-hybrid library CCNG1
T40 chain: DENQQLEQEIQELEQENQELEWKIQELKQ

[41] = molecular target: T41, O15-bN; test: two-hybrid library CCNG1
T41 chain: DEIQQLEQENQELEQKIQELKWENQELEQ

[42] = molecular target: T42, Core_NIIN-es_KKEE; test: two-hybrid library CCmax; conditions: mean of both orientations
T42 chain: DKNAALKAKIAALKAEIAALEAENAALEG

[43] = molecular target: T43, Core_IINI-es_KKEE; test: two-hybrid library CCmax; conditions: mean of both orientations
T43 chain: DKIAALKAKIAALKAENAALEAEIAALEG

[44] = molecular target: T44, P3bHq; test: two-hybrid library CCNG1
T44 chain: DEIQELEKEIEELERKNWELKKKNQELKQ

[45] = molecular target: T45, P9bHq; test: two-hybrid library CCNG1
T45 chain: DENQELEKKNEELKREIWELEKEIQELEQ

[46] = molecular target: T46, P1bHq; test: two-hybrid library CCNG1
T46 chain: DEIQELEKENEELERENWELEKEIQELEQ

[47] = molecular target: T47, P10bHq; test: two-hybrid library CCNG1
T47 chain: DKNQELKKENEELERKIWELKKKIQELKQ

[48] = molecular target: T48, P6bHq; test: two-hybrid library CCNG1
T48 chain: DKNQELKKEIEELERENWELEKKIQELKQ

[49] = molecular target: T49, P5bHq; test: two-hybrid library CCNG1
T49 chain: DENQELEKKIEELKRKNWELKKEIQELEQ

[50] = molecular target: T50, P4bHq; test: two-hybrid library CCNG1
T50 chain: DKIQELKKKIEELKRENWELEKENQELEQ

[51] = molecular target: T51, P7bHq; test: two-hybrid library CCNG1
T51 chain: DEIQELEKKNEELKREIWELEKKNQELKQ

[52] = molecular target: T52, P8bHq; test: two-hybrid library CCNG1
T52 chain: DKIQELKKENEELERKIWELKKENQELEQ

[53] = molecular target: T53, P11bHq; test: two-hybrid library CCNG1
T53 chain: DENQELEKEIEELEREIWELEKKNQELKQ

[54] = molecular target: T54, P12bHq; test: two-hybrid library CCNG1
T54 chain: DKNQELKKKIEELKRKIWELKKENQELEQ

[55] = molecular target: T55, Core_NINN-es_KKKE; test: two-hybrid library CCmax; conditions: mean of both orientations
T55 chain: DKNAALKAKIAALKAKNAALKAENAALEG

[56] = molecular target: T56, Core_IINI-es_KKEK; test: two-hybrid library CCmax; conditions: mean of both orientations
T56 chain: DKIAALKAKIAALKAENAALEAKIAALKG

[57] = molecular target: T57, 4H1347-bN; test: two-hybrid library CCNG1
T57 chain: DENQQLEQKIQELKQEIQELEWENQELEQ

[58] = molecular target: T58, 4H3070-bN; test: two-hybrid library CCNG1
T58 chain: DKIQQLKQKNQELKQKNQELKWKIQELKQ

[59] = molecular target: T59, 4H2691-bN; test: two-hybrid library CCNG1
T59 chain: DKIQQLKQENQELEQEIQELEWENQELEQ

[60] = molecular target: T60, 4H342-bN; test: two-hybrid library CCNG1
T60 chain: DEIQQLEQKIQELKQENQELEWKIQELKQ

[61] = molecular target: T61, 4H496-bN; test: two-hybrid library CCNG1
T61 chain: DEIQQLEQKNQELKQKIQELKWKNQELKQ

[62] = molecular target: T62, 4H3632-bN; test: two-hybrid library CCNG1
T62 chain: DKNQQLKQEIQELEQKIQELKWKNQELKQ

[63] = molecular target: T63, 4H145-bN; test: two-hybrid library CCNG1
T63 chain: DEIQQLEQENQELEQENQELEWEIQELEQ

[64] = molecular target: T64, 4H2619-bN; test: two-hybrid library CCNG1
T64 chain: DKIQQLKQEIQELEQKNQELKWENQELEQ

B1: 4H264-bN (peptide)
chain: DEIQQLEQKIQELEQEIQELEWKNQELKQ
interaction score [1]: 1.31
interaction score [2]: -2.47
interaction score [3]: 0.605
interaction score [4]: -0.23
interaction score [5]: 0.137
interaction score [6]: -0.218
interaction score [7]: 0.605
interaction score [8]: -0.816
interaction score [9]: 1.54
interaction score [10]: 0.44
interaction score [11]: 0.517
interaction score [12]: -2.9
interaction score [13]: 0.479
interaction score [14]: 1.92
interaction score [15]: -0.162
interaction score [16]: -0.338

B2: 4H1347-bH (peptide)
chain: DENQELEKKIEELKREIWELEKENQELER
interaction score [17]: -0.415
interaction score [18]: -0.368
interaction score [19]: 1.71
interaction score [20]: -0.275
interaction score [21]: -0.395
interaction score [22]: 0.364
interaction score [23]: -0.391
interaction score [24]: -0.987

B3: Core_NNIN-es_EKEK (peptide)
chain: DENAALEAKNAALKAEIAALEAKNAALKG
interaction score [25]: 1.67

B4: O1-bN (peptide)
chain: DKNQQLKQENQELEQEIQELEWEIQELEQ
interaction score [26]: -1.2
interaction score [27]: -1.9
interaction score [28]: -1.54
interaction score [29]: -2.11
interaction score [30]: -1.14
interaction score [31]: -1.34
interaction score [32]: 2
interaction score [33]: -1.9
interaction score [34]: -0.61
interaction score [35]: -1.46
interaction score [36]: -0.922
interaction score [37]: -0.57
interaction score [38]: -1.45
interaction score [39]: -0.836
interaction score [40]: -1.24
interaction score [41]: -1.32

B5: Core_NIIN-es_EEKK (peptide)
chain: DENAALEAEIAALEAKIAALKAKNAALKG
interaction score [42]: 2.03

B6: Core_IINI-es_EEKK (peptide)
chain: DEIAALEAEIAALEAKNAALKAKIAALKG
interaction score [43]: 2.25

B7: P10bHq (peptide)
chain: DKNQELKKENEELERKIWELKKKIQELKQ
interaction score [44]: -0.901
interaction score [45]: 1
interaction score [46]: 1.43
interaction score [47]: -0.704
interaction score [48]: 1.3
interaction score [49]: -0.0841
interaction score [50]: 0.266
interaction score [51]: 1.54
interaction score [52]: -0.382
interaction score [53]: -1.18
interaction score [54]: 1.08

B8: Core_NINN-es_EEEK (peptide)
chain: DENAALEAEIAALEAENAALEAKNAALKG
interaction score [55]: 2.16

B9: Core_IINI-es_EEKE (peptide)
chain: DEIAALEAEIAALEAKNAALKAEIAALEG
interaction score [56]: 2.32

B10: 4H1347-bN (peptide)
chain: DENQQLEQKIQELKQEIQELEWENQELEQ
interaction score [57]: -0.341
interaction score [58]: 0.122
interaction score [59]: -0.113
interaction score [60]: -0.286
interaction score [61]: -0.299
interaction score [62]: 1.6
interaction score [63]: -0.341
interaction score [64]: -1.17
